The values below come from patent publication US20090131312A1.

First the molecules themselves.
B1: recombinant human I-TAC (ligand, UniProt O14625 22-94, looked up)
C-X-C motif chemokine 11: FPMFKRGRCLCIGPGVKAVKVADIEKASIMYPSNNCDKIEVIITLKENKGQRCLNPKSKQARLIIKKVERKNF
B2: recombinant human MIG (ligand, UniProt Q07325 23-125, looked up)
C-X-C motif chemokine 9: TPVVRKGRCSCISTNQGTIHLQSLKDLKQFAPSPSCEKIEIIATLKNGVQTCLNPDSADVKELIKKWEKQVSQKKKQKNGKKHQKKKVLKVRKSQRSRQKKTT
B3: recombinant human PF4 (ligand, UniProt P02776 32-101, looked up)
Platelet factor 4: EAEEDGDLQCLCVKTTSQVRPRHITSLEVIKAGPHCPTAQLIATLKNGRKICLDLQAPLYKKIIKKLLES

In the assay the target is human CXCR3 (human) (UniProt P49682). The assay can be described thus: cell-based or functional assay.
Sequence of UniProt P49682 (P49682 whole entry): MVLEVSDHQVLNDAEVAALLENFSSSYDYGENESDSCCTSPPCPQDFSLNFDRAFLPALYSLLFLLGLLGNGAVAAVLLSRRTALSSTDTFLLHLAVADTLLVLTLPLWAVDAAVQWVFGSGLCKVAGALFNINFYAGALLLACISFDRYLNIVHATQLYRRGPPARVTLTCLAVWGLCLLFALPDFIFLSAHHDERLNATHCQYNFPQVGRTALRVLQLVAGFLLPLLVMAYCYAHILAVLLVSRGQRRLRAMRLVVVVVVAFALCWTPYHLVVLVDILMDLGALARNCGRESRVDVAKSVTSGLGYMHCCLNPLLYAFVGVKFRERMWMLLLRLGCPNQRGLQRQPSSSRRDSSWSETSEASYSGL
Consider recombinant human IP-10 (ligand), for which the phosphorylated ERK1/2 (immunoblot), fold induction over control levels; HMVEC, 2 min. (fold induction over control) was 0.333; the phosphorylated ERK1/2 (immunoblot), fold induction over control levels; HMVEC, 5 min. (fold induction over control) turned out to be 0.07; the phosphorylated ERK1/2 (immunoblot), fold induction over control levels; HMVEC, 15 min. (fold induction over control) amounted to 0.382; the phosphorylated ERK1/2 (immunoblot), fold induction over control levels; HUVEC, 2 min. (fold induction over control) turned out to be 10.3. For the same molecule, the phosphorylated ERK1/2 (immunoblot), fold induction over control levels; HUVEC, 5 min. (fold induction over control) was determined as 10.8; the phosphorylated ERK1/2 (immunoblot), fold induction over control levels; HUVEC, 15 min. (fold induction over control) was determined as 6.87; the phosphorylated ERK1/2 (immunoblot), fold induction over control levels; Pre-B-cells expressing human CXCR3, 2 min. (fold induction over control) is 1.03; the phosphorylated ERK1/2 (immunoblot), fold induction over control levels; Pre-B-cells expressing human CXCR3, 5 min. (fold induction over control) came to 0.921. Besides, the phosphorylated ERK1/2 (immunoblot), fold induction over control levels; Pre-B-cells expressing human CXCR3, 15 min. (fold induction over control) was found to be 0.57.

Consider “native PF4 with native I-TAC N-loop (ligand)”, for which the phosphorylated ERK1/2 (immunoblot), fold induction over control levels; HMVEC, 2 min. (fold induction over control) came out at 0.915; the phosphorylated ERK1/2 (immunoblot), fold induction over control levels; HMVEC, 5 min. (fold induction over control) was 1.06; the phosphorylated ERK1/2 (immunoblot), fold induction over control levels; HMVEC, 15 min. (fold induction over control) was determined as 3.28; the phosphorylated ERK1/2 (immunoblot), fold induction over control levels; HUVEC, 2 min. (fold induction over control) is 4.13. For the same molecule, the phosphorylated ERK1/2 (immunoblot), fold induction over control levels; HUVEC, 5 min. (fold induction over control) is 5.68; the phosphorylated ERK1/2 (immunoblot), fold induction over control levels; HUVEC, 15 min. (fold induction over control) is 9.83; the phosphorylated ERK1/2 (immunoblot), fold induction over control levels; Pre-B-cells expressing human CXCR3, 2 min. (fold induction over control) is 1.57; the phosphorylated ERK1/2 (immunoblot), fold induction over control levels; Pre-B-cells expressing human CXCR3, 5 min. (fold induction over control) worked out at 1.16. Also, the phosphorylated ERK1/2 (immunoblot), fold induction over control levels; Pre-B-cells expressing human CXCR3, 15 min. (fold induction over control) turned out to be 0.931.

B1: the phosphorylated ERK1/2 (immunoblot), fold induction over control levels; HMVEC, 2 min. (fold induction over control) amounted to 0.205; the phosphorylated ERK1/2 (immunoblot), fold induction over control levels; HMVEC, 5 min. (fold induction over control) was found to be 0.137; the phosphorylated ERK1/2 (immunoblot), fold induction over control levels; HMVEC, 15 min. (fold induction over control) came to 3.08; the phosphorylated ERK1/2 (immunoblot), fold induction over control levels; HUVEC, 2 min. (fold induction over control) was 1.65. The phosphorylated ERK1/2 (immunoblot), fold induction over control levels; HUVEC, 5 min. (fold induction over control) was 1.36; the phosphorylated ERK1/2 (immunoblot), fold induction over control levels; HUVEC, 15 min. (fold induction over control) stood at 1.31; the phosphorylated ERK1/2 (immunoblot), fold induction over control levels; Pre-B-cells expressing human CXCR3, 2 min. (fold induction over control) worked out at 2.24; the phosphorylated ERK1/2 (immunoblot), fold induction over control levels; Pre-B-cells expressing human CXCR3, 5 min. (fold induction over control) came to 1.38. The phosphorylated ERK1/2 (immunoblot), fold induction over control levels; Pre-B-cells expressing human CXCR3, 15 min. (fold induction over control) is 1.22.

On to B2, for which the phosphorylated ERK1/2 (immunoblot), fold induction over control levels; HMVEC, 2 min. (fold induction over control) was found to be 1.56; the phosphorylated ERK1/2 (immunoblot), fold induction over control levels; HMVEC, 5 min. (fold induction over control) turned out to be 1.13; the phosphorylated ERK1/2 (immunoblot), fold induction over control levels; HMVEC, 15 min. (fold induction over control) was 1.31; the phosphorylated ERK1/2 (immunoblot), fold induction over control levels; HUVEC, 2 min. (fold induction over control) was determined as 5.35. The phosphorylated ERK1/2 (immunoblot), fold induction over control levels; HUVEC, 5 min. (fold induction over control) worked out at 6.96; the phosphorylated ERK1/2 (immunoblot), fold induction over control levels; HUVEC, 15 min. (fold induction over control) came to 5.76; the phosphorylated ERK1/2 (immunoblot), fold induction over control levels; Pre-B-cells expressing human CXCR3, 2 min. (fold induction over control) was 0.795; the phosphorylated ERK1/2 (immunoblot), fold induction over control levels; Pre-B-cells expressing human CXCR3, 5 min. (fold induction over control) was found to be 0.842. Also, the phosphorylated ERK1/2 (immunoblot), fold induction over control levels; Pre-B-cells expressing human CXCR3, 15 min. (fold induction over control) was 1.76.

As to B3, the phosphorylated ERK1/2 (immunoblot), fold induction over control levels; HMVEC, 2 min. (fold induction over control) is 1.01; the phosphorylated ERK1/2 (immunoblot), fold induction over control levels; HMVEC, 5 min. (fold induction over control) is 0.895; the phosphorylated ERK1/2 (immunoblot), fold induction over control levels; HMVEC, 15 min. (fold induction over control) was 1.78; the phosphorylated ERK1/2 (immunoblot), fold induction over control levels; HUVEC, 2 min. (fold induction over control) was found to be 6.85. Also, the phosphorylated ERK1/2 (immunoblot), fold induction over control levels; HUVEC, 5 min. (fold induction over control) turned out to be 9.63; the phosphorylated ERK1/2 (immunoblot), fold induction over control levels; HUVEC, 15 min. (fold induction over control) is 11.5; the phosphorylated ERK1/2 (immunoblot), fold induction over control levels; Pre-B-cells expressing human CXCR3, 2 min. (fold induction over control) was 1.25; the phosphorylated ERK1/2 (immunoblot), fold induction over control levels; Pre-B-cells expressing human CXCR3, 5 min. (fold induction over control) was 1.33. Further, the phosphorylated ERK1/2 (immunoblot), fold induction over control levels; Pre-B-cells expressing human CXCR3, 15 min. (fold induction over control) turned out to be 1.45.
